Values belong to the binder of their own block, whether it stands above or below them.
Biological target: T1, human IL6 (human, UniProt P05231 30-212, biotinylated in the ELISA (bio-IL6); site not given)
T1 construct: In the ELISA it was biotinylated and captured on a neutravidin-coated plate; In Biacore it was on a CM5 sensor chip; also called bio-IL6; biotinylated human IL6
Assay: SPR, Biacore 3000, human IL6 on CM5 chip, Nanobody 3.75 nM to 2 uM
Experimental: Binding of VH4 Nanobodies to different antigens was evaluated by surface plasmon resonance on a Biacore 3000 instrument. […]

- Kd: 19 nM
- koff: 0.00036 s⁻¹
- kon: 19000 M⁻¹ s⁻¹
B1: VH4 16.1 (VHH)
VHH: QVQLQESGPGLVKPSQTLSLTCTVSGGSITTYRYYWSWIRQPPGKGLEWMGAIAYSGSTYYSPSLKSRTSISRDTTKNQFTLQLSSVTPEDTAVYYCARGRLGSWYYELNEYDYWGQGTQVTVSS
notes: The two are tied only by the clone number; Llama VH4-class Nanobody, purified by IMAC as a His6-tagged protein; also called anti-IL6 VH4 Nanobody 16.1; VH4 cl16; not shown: His6 tag from vector pAX51

- Kd: 46 nM
- koff: 0.0018 s⁻¹
- kon: 40000 M⁻¹ s⁻¹
B2: VH4 20.1 (VHH)
VHH: QVQLQESGPGLVKPSQTLSLTCTVSGGSITTYNYAWSWIRQPPGKGLEWMGVIAYDGSTYYSPSLKSRTSISRDTSKNQFSLQLSSVTPEDTAVYYCARGTVGSWYDEFPPRYDYWGQGTQVTVSS
notes: The two are tied only by the clone number; also called anti-IL6 VH4 Nanobody 20.1; VH4 Nanobody 20.1; not shown: His6 tag from vector pAX51

— patent US20090286727A1 (Ablynx, published 2009)
